Details: Homo sapiens, Thermal, DSC, reversible: no, whole UniProt chain shown

B1: Annexin A5 wild type, P08758 (protein)
chain: MAQVLRGTVTDFPGFDERADAETLRKAMKGLGTDEESILTLLTSRSNAQRQEISAAFKTLFGRDLLDDLKSELTGKFEKLIVALMKPSRLYDAYELKHALKGAGTNEKVLTEIIASRTPEELRAIKQVYEEEYGSSLEDDVVGDTSGYYQRMLVVLLQANRDPDAGIDEAQVEQDAQALFQAGELKWGTDEEKFITIFGTRSVSHLRKVFDKYMTISGFQIEETIDRETSGNLEQLLLAVVKSIRSIPAYLAETLYYAMKGAGTDDHTLIRVMVSRSEIDLFNIRKEFRKNFATSLYSMIKGDTSGDYKKALLLLCGEDD
pH 4, Sodium phosphate 20 mM
  Tm: 40.6 °C
  unfolding enthalpy (calorimetric): 128 kcal/mol
  unfolding enthalpy (van 't Hoff): 151 kcal/mol
pH 6, Sodium phosphate 20 mM
  Tm: 50.5 °C
  unfolding enthalpy (calorimetric): 147 kcal/mol
  unfolding enthalpy (van 't Hoff): 174 kcal/mol
pH 7, Sodium phosphate 20 mM
  Tm: 53.4 °C
  unfolding enthalpy (calorimetric): 163 kcal/mol
  unfolding enthalpy (van 't Hoff): 189 kcal/mol
pH 8, Sodium phosphate 20 mM
  Tm: 54.4 °C
  unfolding enthalpy (calorimetric): 162 kcal/mol
  unfolding enthalpy (van 't Hoff): 199 kcal/mol
pH 8, Tris 50 mM, KCl 100 mM
  Tm: 52.5 °C
  unfolding enthalpy (calorimetric): 163 kcal/mol
  unfolding enthalpy (van 't Hoff): 190 kcal/mol
